The text below walks through data of the supplement of paper PMC10126150.

± gives the standard deviation of the averaged measurements.
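Also: ATP exposure 15 min at 22 °C before imaging.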

For the data set, the system named is ATP. Briefly: switch fluorescence ratio, 500 uM ATP over buffer (Cy3 cluster intensity, sum of 5 cycles each) (fold (ratio)); higher = stronger signal-on switching upon ATP binding; sequences stand for … in TCGTCGGCAGCGTCAGATGTGTATAAGAGACAGTTTTTTTTTTTTTTTTTTTTTTTTT…TC. Conditions: aptamer strand: ATP DNA aptamer (quencher-CACCTGGGGGAGTATTGCGGAGGAAGG + anchor), 100 nM annealed; ATP concentration: 500 uM. An outline of the steps: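 The fluorescence ratio divides summed target-cycle Cy3 intensity by summed buffer-cycle Cy3 intensity for each cluster and is averaged per switch-domain sequence. Cy3-labelled switching-strand clusters on a modified Illumina MiSeq flow-cell were annealed to 100 nM quencher-labelled ATP aptamer, then imaged in selection buffer and again after 15 min with 500 uM ATP at 22 °C. Five such cycles were run, with NaOH stripping and re-annealing between them, and clusters outside 100-1000 RFU were excluded.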
Regarding ATGCTGGGGG, the switch fluorescence ratio is 0.994 ± 0.013.

Regarding CGGCTAGAAG, the switch fluorescence ratio came to 0.994 ± 0.038. With AAAACCAGAC, the switch fluorescence ratio came to 1.53 ± 0.078. As for ACGTAAAGAC, the figure is 1.17 ± 0.23; as for GGGGTATATT, 0.9938 ± 0.0062. As for AAGAGCACT, the figure is 1.05 ± 0.048; as for TCAATCTTCT, 1.032 ± 0.0095; as for AGTATGGTGG, 0.998 ± 0.013. To TTAATTTCTA belongs 0.9901 ± 0.0058. Consider GAGGATTTTG, for which the switch fluorescence ratio was 1.003 ± 0.0089. As for GCTGGCAGCC, the figure is 1.01 ± 0.069.

On to TTATCGGGCT, for which the switch fluorescence ratio amounted to 1.02 ± 0.023.

ATAGAGGGTG: the switch fluorescence ratio was 1.05 ± 0.071. To AGTAGGTAGG belongs 0.981 ± 0.03. With GGGTAGTCTG, the switch fluorescence ratio worked out at 1 ± 0.049. TATTTGATTG: the switch fluorescence ratio amounted to 1.001 ± 0.0041. To GAGGCAGTTG belongs 0.993 ± 0.076. To ATGGGGTCGG belongs 1 ± 0.035; to GGCGGGGGTG, 1.04 ± 0.065. As for GGTTCAATTG, the figure is 1.03 ± 0.089; as for TCGGCGGGGA, 1.05 ± 0.14; as for AAAATGGTAT, 1.01 ± 0.038. Consider GAGGGGTCCG, for which the switch fluorescence ratio worked out at 1 ± 0.11. To GTGATTGACT belongs 1.03 ± 0.025.

For ATTGGACAAT, the switch fluorescence ratio was found to be 1.02 ± 0.032. As to GAGGGCCTTA, the switch fluorescence ratio stood at 0.9885 ± 0.0025.

Consider TTCTCATTTT, for which the switch fluorescence ratio was 1.01 ± 0.029. As for CGCCTGGGGT, the figure is 1.64 ± 0.92; as for ACAGGGGCCA, 0.999 ± 0.011; as for GAGTGCCGTG, 1.01 ± 0.065. As for TCGAGAGGGA, the figure is 1 ± 0.047. CCTGGCAGCG: the switch fluorescence ratio is 1.05 ± 0.03. To AGAGGGGGGC belongs 1.04 ± 0.1; to TTTTGGTTAG, 0.983 ± 0.015. On to ACTGTTATTT, for which the switch fluorescence ratio amounted to 1.0389 ± 0.00024. Regarding TCTCAGCAAA, the switch fluorescence ratio is 3.38 ± 0.53. To AGAGGGCCGG belongs 1.03 ± 0.072; to AAGCCAGGGG, 1.46 ± 0.0077; to TTTGAACGCT, 1.06 ± 0.015. As to TTTATAAAGT, the switch fluorescence ratio turned out to be 0.958 ± 0.032.

In the case of TGCAGGGTTG, the switch fluorescence ratio worked out at 0.99591 ± 0.00085. To GGGGCGCGGA belongs 1.09 ± 0.12. To TAAAAGCTAA belongs 1 ± 0.031; to GGCGAGCTGG, 0.9997 ± 0.0034. For the sequence AACTGAGTGC, the switch fluorescence ratio worked out at 1 ± 0.043. As for TTGCAGGGGT, the figure is 1.14 ± 0.25.

Regarding TTTCGCTCGT, the switch fluorescence ratio turned out to be 0.9628 ± 0.003. As for TGCTCGGCGT, the figure is 0.99846 ± 0.00041; as for GTAAAAGCGG, 0.9788 ± 0.0082. As for ACCAACCGT, the figure is 1.16 ± 0.02.

As to CAGGGAGAGG, the switch fluorescence ratio is 1 ± 0.011. To TGCAAGGTCG belongs 1.03 ± 0.031; to TTGGCAAAGG, 1.1 ± 0.19. To AATGGAACGG belongs 1.02 ± 0.032; to CTCCTAGTTT, 1.03 ± 0.02; to AAGAGGTAAA, 0.972 ± 0.025. As for CGGGACTTTT, the figure is 0.982 ± 0.044. Turning to GGGAGCCTTC, the switch fluorescence ratio came to 1.01 ± 0.031. As for CGGACTAGGG, the figure is 1.04 ± 0.022; as for CACTGTGTTG, 0.987 ± 0.035. For TTATAATAGG, the switch fluorescence ratio was determined as 1.02 ± 0.032.

With TATGGAGGGC, the switch fluorescence ratio amounted to 1.06 ± 0.041. For TAATTTCAAG, the switch fluorescence ratio was 1.014 ± 0.0039. As for GGTGCTAGCG, the figure is 1.0247 ± 0.00089; as for GGGGGGGCTT, 0.998 ± 0.031. To GCTCGTAGTT belongs 1.01 ± 0.046; to AAAATGGCGT, 0.9694 ± 0.004; to CGTTGGGGTT, 1.02 ± 0.036. As to CGGGTGACGG, the switch fluorescence ratio is 1.05 ± 0.057. To TGTGTATTTT belongs 0.992 ± 0.028; to TTGGTTCCGT, 1.01 ± 0.026. As for GGAGGGTGTC, the figure is 0.988 ± 0.044; as for CGGGGATGTA, 0.972 ± 0.031; as for CCCTAATACG, 1.76 ± 0.044. As for TCGTAAAAA, the figure is 1.07 ± 0.13; as for AGGGACTTGT, 1 ± 0.03; as for GAAAGCCTTT, 1 ± 0.012. Turning to AATCGGATGG, the switch fluorescence ratio is 1.02 ± 0.037.
